Blank lines part the entries; values can stand above or below the molecule they belong to.
Legend:
[1] = biological target: human 5T4 antigen expressed on cells (PC14PE6 cells; MDAMB435/5T4 cells) (human) (UniProt Q13641); experiment: FACS of PC14PE6 cells; control
human 5T4 antigen [2] = biological target: T1, human 5T4 antigen (human, UniProt Q13641 32-355, limits assumed); experiment: BIACORE; human 5T4 chip saturated with first antibody humanized H8 (competitor); 37.5 s after injection of second antibody
T1 sequence: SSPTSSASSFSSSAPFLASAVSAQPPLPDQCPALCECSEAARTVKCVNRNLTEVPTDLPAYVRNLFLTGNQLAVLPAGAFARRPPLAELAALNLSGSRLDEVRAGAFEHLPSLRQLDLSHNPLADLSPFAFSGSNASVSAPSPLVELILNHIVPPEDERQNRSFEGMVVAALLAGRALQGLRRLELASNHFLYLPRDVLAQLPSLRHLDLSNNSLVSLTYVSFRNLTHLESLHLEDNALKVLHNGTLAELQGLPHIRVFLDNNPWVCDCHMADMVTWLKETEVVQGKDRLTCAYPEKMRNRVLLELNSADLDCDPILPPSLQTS

human 5T4 antigen [3] = biological target: T1, human 5T4 antigen; experiment: ELISA; inhibition of biotinylated chimeric A1 antibody binding to human 5T4
human 5T4 antigen [4] = biological target: T1, human 5T4 antigen; experiment: BIACORE; human 5T4 chip saturated with first antibody humanized H8 (competitor); 150 s after injection of second antibody
human 5T4 antigen [5] = biological target: T1, human 5T4 antigen; experiment: BIACORE; human 5T4 chip saturated with first antibody humanized H8 (competitor); 600 s after injection of second antibody
human 5T4 antigen [6] = biological target: T1, human 5T4 antigen; experiment: BIACORE; human 5T4 chip saturated with first antibody humanized H8 (competitor); 75 s after injection of second antibody
[7] = biological target: T2, black-tailed marmoset 5T4 ectodomain Fc (black-tailed marmoset; human, UniProt Q13641 32-355); experiment: ELISA; 5T4 ectodomain/Fc fusion protein from transiently transfected COS-1 cells; given as ED50
T2 construct: not shown: Fc constant regions from human IgG1
T2 chain: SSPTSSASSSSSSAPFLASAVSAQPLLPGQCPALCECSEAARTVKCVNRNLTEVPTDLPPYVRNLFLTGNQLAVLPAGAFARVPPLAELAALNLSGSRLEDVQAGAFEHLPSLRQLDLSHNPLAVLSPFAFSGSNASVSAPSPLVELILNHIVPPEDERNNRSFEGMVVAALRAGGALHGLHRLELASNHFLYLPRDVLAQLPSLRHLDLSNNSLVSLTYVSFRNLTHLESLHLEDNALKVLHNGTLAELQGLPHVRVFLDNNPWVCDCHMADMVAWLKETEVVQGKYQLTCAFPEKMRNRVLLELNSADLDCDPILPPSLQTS
Procedure: (§1) To assay binding of anti-5T4 antibodies, 5T4 ectodomain/Fc fusion proteins were transiently transfected into COS-1 cells, and ELISA assays were performed. Non-relevant human IgG4 and IgG1 antibodies were used as controls.

[8] = biological target: chimpanzee 5T4 ectodomain Fc (chimpanzee; human, UniProt P01857 99-330 = IgG part); experiment: as above
Procedure: as §1

human 5T4 ectodomain Fc = biological target: T3, human 5T4 ectodomain Fc (human, UniProt Q13641 32-355); experiment: as above
T3 construct: also called human 5T4 ectodomain Fc fusion protein; Human 5T4 Ectodomain/Fc Fusion; not shown: Fc constant regions from human IgG1
T3 sequence: T1 sequence
Procedure: as §1

[9] = biological target: T4, cynomologous monkey 5T4 ectodomain Fc (cynomologous monkey; human, UniProt Q4R8Y9 32-355); experiment: as above
T4 construct: not shown: Fc constant regions from human IgG1
T4 chain: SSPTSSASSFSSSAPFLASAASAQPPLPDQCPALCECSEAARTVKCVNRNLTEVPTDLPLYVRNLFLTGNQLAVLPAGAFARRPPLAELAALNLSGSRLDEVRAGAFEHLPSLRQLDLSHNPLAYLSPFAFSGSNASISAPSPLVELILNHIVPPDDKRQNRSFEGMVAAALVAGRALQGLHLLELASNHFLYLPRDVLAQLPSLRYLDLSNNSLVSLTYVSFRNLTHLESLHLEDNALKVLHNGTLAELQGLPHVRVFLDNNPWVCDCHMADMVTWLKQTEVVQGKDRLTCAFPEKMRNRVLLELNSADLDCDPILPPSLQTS
Procedure: as §1

human 5T4 antigen [10] = biological target: T1, human 5T4 antigen; experiment: BIACORE; human 5T4 chip saturated with first antibody humanized H8 (competitor); 300 s after injection of second antibody
human 5T4 antigen [11] = biological target: T1, human 5T4 antigen; experiment: BIACORE; human 5T4 chip saturated with first antibody humanized H8 (competitor); 19 s after injection of second antibody
human 5T4 antigen [12] = biological target: T1, human 5T4 antigen; experiment: BIACORE (SPR); human 5T4 antigen immobilized on CM5 chip
Procedure: To assess the binding specificity and affinity of the A1, A2, and A3 antibodies, BIACORE® analysis was performed using human 5T4 antigen immobilized on a CM5 chip. BIACORE® technology utilizes changes in the refractive index at the surface layer upon binding of the antibody to the 5T4 antigen immobilized on the layer. Binding is detected by surface plasmon resonance (SPR) of laser light refracting from the surface. Analysis of the signal kinetics on rate and off rate allows discrimination between non-specific and specific interactions. The H8 anti-5T4 antibody was used as a control. H8 is a hybridoma-generated monoclonal mouse IgG1 antibody described in PCT International Publication No. WO 98/55607 and in Forsberg et al. (1997) J. Biol. Chem. 272(19):[…].
To assess the binding specificity and affinity of the chimeric and humanized H8, A1, A2, and A3 antibodies, BIACORE® analysis was performed using human 5T4 antigen immobilized on a CM5 chip. See Example 2.

[13] = biological target: T5, human 5T4 antigen expressed on cells (PC14PE6 cells; MDAMB435/5T4 cells) (human, UniProt Q13641 32-420); experiment: cell-based or functional assay
T5 sequence: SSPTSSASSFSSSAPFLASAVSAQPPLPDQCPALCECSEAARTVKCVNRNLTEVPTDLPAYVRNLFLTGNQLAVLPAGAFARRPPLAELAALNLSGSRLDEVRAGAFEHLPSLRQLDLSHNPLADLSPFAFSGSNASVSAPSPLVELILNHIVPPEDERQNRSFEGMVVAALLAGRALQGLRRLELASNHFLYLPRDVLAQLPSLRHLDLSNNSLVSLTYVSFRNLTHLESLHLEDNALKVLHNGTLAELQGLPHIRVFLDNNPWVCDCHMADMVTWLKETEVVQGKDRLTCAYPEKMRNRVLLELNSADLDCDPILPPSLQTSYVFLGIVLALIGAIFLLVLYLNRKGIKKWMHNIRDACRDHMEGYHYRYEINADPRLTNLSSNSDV

Mean Cellular Flouresence [1]: 4
Molecule: Control (murine IgG) (antibody)

Mean Cellular Flouresence [1]: 4
Molecule: Control (secondary Ab) (antibody)

percentage of second antibody bound following saturation with first antibody (human 5T4 antigen [2]): 92.4%
IC50 (human 5T4 antigen [3]): 16 to 20 nM
percentage of second antibody bound following saturation with first antibody (human 5T4 antigen [4]): 95.8%
percentage of second antibody bound following saturation with first antibody (human 5T4 antigen [5]): 98.7%
percentage of second antibody bound following saturation with first antibody (human 5T4 antigen [6]): 93.8%
EC50 [7]: 0.24 nM
EC50 [8]: 0.27 nM
EC50 (human 5T4 ectodomain Fc): 0.28 nM
EC50 [9]: 0.18 nM
percentage of second antibody bound following saturation with first antibody (human 5T4 antigen [10]): 97.3%
percentage of second antibody bound following saturation with first antibody (human 5T4 antigen [11]): 92.7%
Ka (human 5T4 antigen [12]): 2.3e+09 M⁻¹
Kd (human 5T4 antigen [12]): 0.44 nM
koff (human 5T4 antigen [12]): 6.7e-05 s⁻¹
kon (human 5T4 antigen [12]): 150000 M⁻¹ s⁻¹
B1: chimeric A1 antibody (antibody, V domains shown)
VH: QIQLVQSGPELKKPGETVKISCKASGYTFTNFGMNWVKQGPGEGLKWMGWINTNTGEPRYAEEFKGRCAFSLETTASTAYLQINNLKNEDTATYFCARDWDGAYFFDYWGQGTTLTVSS
VL: SIVMTQTPKFLLVSAGDRVTITCKASQSVSNDVAWYQQKPGQSPKLLINFATNRYTGVPNRFTGSGYGTDFTFTISTVQAEDLALYFCQQDYSSPWTFGGGTKLEIK
modifications: Biotinylated when used as the labelled competitor in Table 13; the site is not stated.
notes: also called ChiA1; ChiA1 γ4

Fold CalichDMH, MTS assay, MDAMB435/5T4 cells [13]: 0.13 fold
B2: A2-AcBut-CalichDMH, A2 antibody conjugated to calicheamicin using 4-(4'-acetylphenoxy)butanoic acid (AcBut) (other)
VH: QVQLQQSRPELVKPGASVKMSCKASGYTFTDYVISWVKQRTGQGLEWIGEIYPGSNSIYYNEKFKGRATLTADKSSSTAYMQLSSLTSEDSAVYFCAMGGNYGFDYWGQGTTLTVSS
VL: QIVLTQSPAIMSASLGERVTLTCTASSSVNSNYLHWYQQKPGSSPKLWIYSTSNLASGVPARFSGSGSGTSYSLTISSMEAEDAATYYCHQYHRSPLTFGAGTKLELK
modifications: calicheamicin (CalichDMH) conjugated to the antibody through the AcBut linker; residues carrying it not stated

percentage of second antibody bound following saturation with first antibody (human 5T4 antigen [2]): 84.7%
percentage of second antibody bound following saturation with first antibody (human 5T4 antigen [4]): 90.5%
percentage of second antibody bound following saturation with first antibody (human 5T4 antigen [5]): 96.7%
percentage of second antibody bound following saturation with first antibody (human 5T4 antigen [6]): 86.9%
EC50 [7]: 0.22 nM
EC50 [8]: 0.22 nM
EC50 (human 5T4 ectodomain Fc): 0.21 nM
EC50 [9]: 0.18 nM
percentage of second antibody bound following saturation with first antibody (human 5T4 antigen [10]): 93.7%
percentage of second antibody bound following saturation with first antibody (human 5T4 antigen [11]): 86.9%
Ka (human 5T4 antigen [12]): 5.7e+08 M⁻¹
Kd (human 5T4 antigen [12]): 1.8 nM
koff (human 5T4 antigen [12]): 0.00025 s⁻¹
kon (human 5T4 antigen [12]): 140000 M⁻¹ s⁻¹
B3: chimeric A2 antibody (antibody, human IgG4, V domains shown)
VH: B2 VH
VL: B2 VL
notes: also called ChiA2; ChiA2 γ4
